Tests used:
[1] = Heat-accelerated stability of MMI-0100 in buffers pH 4-8 (pH, appearance, HPLC assay, impurities); conditions: in citrate
Text: Testing of stability samples included pH (initial only), appearance, HPLC assay and impurities. CC=clear and colorless.

JNK1α1(h) = JNK1α1(h) (Homo sapiens, UniProt P45983); experiment: Kinase Profiling Assay; type: biochemical
MKK7β(h) = MKK7β(h) (Homo sapiens, UniProt O14733); experiment: Kinase Profiling Assay; type: biochemical
MARK1(h) = MARK1(h) (Homo sapiens, UniProt Q9P0L2); experiment: Kinase Profiling Assay; type: biochemical; conditions: 100 μM
EphA1(h) = target: T1, EphA1(h) (Homo sapiens, UniProt P21709); experiment: Kinase Profiling Assay; type: biochemical; conditions: 100 μM
T1 sequence (P21709 26-976): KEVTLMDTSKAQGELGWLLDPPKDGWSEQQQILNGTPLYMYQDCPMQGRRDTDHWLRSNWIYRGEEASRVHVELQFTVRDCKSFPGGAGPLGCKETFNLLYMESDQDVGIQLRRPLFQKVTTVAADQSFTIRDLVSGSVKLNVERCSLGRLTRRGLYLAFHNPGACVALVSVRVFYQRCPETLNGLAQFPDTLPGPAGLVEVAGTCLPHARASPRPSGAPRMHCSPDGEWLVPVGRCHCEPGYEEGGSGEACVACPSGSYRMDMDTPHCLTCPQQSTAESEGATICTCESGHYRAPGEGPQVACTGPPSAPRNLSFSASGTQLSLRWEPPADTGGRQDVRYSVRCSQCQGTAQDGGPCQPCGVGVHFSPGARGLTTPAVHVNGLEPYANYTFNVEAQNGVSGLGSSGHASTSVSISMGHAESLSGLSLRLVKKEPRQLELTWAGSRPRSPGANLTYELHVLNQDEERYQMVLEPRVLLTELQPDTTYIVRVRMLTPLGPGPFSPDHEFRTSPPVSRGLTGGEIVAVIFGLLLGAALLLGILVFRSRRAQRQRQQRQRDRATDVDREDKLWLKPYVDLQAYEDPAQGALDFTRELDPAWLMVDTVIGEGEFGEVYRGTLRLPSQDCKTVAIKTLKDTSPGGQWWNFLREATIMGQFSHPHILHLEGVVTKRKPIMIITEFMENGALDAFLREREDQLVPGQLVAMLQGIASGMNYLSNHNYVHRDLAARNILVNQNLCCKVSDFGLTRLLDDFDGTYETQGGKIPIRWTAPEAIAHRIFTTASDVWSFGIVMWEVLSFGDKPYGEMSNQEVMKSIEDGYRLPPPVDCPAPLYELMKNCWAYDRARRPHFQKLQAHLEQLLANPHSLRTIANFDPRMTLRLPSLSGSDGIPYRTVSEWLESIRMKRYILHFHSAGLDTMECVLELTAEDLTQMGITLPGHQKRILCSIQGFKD

PDGFRα(D842V)(h) = PDGFRα(D842V)(h) (Homo sapiens, UniProt P16234, D842V); experiment: Kinase Profiling Assay; type: biochemical; conditions: 100 μM
IKKβ(h) = target: T2, IKKβ(h) (Homo sapiens, UniProt O14920); experiment: Kinase Profiling Assay; type: biochemical; conditions: 100 μM
T2 sequence (O14920 1-756): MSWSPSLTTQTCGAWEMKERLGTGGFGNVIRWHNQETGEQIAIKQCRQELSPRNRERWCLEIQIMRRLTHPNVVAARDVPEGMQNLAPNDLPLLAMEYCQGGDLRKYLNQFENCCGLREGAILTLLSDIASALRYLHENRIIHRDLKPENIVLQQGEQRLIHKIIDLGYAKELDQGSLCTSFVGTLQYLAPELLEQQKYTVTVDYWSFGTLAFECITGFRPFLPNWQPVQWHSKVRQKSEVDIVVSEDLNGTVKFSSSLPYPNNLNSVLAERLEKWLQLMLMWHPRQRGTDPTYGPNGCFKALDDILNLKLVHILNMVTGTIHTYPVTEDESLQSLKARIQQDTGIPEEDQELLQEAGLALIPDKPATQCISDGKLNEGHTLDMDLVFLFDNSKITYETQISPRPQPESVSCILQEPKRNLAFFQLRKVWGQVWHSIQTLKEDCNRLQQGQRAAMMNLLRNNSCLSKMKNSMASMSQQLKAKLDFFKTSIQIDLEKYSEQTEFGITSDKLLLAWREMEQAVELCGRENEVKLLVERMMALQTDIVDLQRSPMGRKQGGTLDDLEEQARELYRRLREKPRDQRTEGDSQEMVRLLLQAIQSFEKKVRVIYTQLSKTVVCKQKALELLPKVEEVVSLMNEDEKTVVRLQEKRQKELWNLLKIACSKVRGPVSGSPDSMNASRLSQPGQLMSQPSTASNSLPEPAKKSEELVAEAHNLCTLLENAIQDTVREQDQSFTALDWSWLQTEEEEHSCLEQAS

JNK2α2(h) = JNK2α2(h) (Homo sapiens, UniProt P45984); experiment: Kinase Profiling Assay; type: biochemical; conditions: 100 μM
CDK1/cyclinB(h) = CDK1/cyclinB(h) (Homo sapiens, UniProt P06493); experiment: Kinase Profiling Assay; type: biochemical; conditions: 100 μM
MRCKβ(h) = MRCKβ(h) (Homo sapiens, UniProt Q9Y5S2); experiment: Kinase Profiling Assay; type: biochemical; conditions: 100 μM
IGF-1R(h) = IGF-1R(h) (Homo sapiens, UniProt P08069); experiment: Kinase Profiling Assay; type: biochemical; conditions: 100 μM
EphA2(h) = EphA2(h) (Homo sapiens, UniProt P29317); experiment: Kinase Profiling Assay; type: biochemical; conditions: 100 μM

Chain of JNK1α1(h) (P45983 1-384 isoform P45983-2): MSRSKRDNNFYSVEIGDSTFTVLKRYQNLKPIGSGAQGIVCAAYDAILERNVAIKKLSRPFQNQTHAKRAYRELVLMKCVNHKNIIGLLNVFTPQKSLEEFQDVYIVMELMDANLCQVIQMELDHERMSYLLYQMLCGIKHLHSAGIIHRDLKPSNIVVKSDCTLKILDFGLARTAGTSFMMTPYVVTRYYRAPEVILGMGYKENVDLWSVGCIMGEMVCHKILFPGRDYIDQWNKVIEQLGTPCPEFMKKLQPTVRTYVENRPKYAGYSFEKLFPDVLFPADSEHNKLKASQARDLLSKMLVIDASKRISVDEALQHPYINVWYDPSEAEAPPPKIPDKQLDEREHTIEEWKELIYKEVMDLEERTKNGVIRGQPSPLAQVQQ
Chain of MARK1(h) (Q9P0L2 whole entry): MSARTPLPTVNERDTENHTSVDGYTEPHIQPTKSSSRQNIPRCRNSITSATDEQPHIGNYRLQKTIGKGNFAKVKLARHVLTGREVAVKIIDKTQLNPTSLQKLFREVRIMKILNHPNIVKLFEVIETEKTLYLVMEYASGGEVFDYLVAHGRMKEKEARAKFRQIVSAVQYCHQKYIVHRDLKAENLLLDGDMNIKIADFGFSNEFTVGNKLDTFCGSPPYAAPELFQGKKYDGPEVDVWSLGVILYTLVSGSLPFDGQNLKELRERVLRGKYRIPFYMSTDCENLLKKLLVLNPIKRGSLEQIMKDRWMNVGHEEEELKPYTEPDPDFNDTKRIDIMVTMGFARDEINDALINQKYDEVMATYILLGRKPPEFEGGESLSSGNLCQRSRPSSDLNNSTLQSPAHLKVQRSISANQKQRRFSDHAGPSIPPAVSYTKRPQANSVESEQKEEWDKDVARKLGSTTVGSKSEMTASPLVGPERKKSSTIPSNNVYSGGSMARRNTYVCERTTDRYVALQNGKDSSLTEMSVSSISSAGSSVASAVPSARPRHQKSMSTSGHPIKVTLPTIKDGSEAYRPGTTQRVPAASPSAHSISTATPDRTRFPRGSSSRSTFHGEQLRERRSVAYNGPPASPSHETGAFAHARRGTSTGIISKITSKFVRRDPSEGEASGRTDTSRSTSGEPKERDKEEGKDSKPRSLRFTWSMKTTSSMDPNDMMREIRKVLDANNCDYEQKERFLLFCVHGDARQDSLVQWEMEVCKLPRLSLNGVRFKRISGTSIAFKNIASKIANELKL
Chain of CDK1/cyclinB(h) (P06493 whole entry): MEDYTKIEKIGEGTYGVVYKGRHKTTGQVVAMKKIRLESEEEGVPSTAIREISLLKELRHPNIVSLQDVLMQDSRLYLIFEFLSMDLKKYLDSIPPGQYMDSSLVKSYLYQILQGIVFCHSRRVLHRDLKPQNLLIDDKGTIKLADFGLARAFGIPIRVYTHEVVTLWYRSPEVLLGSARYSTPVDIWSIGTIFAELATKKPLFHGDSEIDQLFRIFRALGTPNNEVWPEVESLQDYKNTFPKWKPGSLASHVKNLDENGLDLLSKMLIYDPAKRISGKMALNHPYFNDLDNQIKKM
Chain of CDK1/cyclinB(h) (P14635 whole entry partner): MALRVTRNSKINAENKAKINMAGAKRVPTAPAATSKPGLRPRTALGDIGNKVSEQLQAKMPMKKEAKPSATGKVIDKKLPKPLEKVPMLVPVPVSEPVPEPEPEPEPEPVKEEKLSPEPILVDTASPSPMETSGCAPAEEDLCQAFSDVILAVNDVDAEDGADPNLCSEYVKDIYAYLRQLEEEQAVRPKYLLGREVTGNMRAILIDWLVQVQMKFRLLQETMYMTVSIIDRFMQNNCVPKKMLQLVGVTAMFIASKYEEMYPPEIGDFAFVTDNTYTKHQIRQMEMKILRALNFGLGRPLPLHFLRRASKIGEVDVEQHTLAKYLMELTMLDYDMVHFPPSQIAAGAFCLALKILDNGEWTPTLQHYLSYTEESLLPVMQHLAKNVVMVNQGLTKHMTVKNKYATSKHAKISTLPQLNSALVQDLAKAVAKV
Chain of PDGFRα(D842V)(h) (P16234 24-1089 D842V): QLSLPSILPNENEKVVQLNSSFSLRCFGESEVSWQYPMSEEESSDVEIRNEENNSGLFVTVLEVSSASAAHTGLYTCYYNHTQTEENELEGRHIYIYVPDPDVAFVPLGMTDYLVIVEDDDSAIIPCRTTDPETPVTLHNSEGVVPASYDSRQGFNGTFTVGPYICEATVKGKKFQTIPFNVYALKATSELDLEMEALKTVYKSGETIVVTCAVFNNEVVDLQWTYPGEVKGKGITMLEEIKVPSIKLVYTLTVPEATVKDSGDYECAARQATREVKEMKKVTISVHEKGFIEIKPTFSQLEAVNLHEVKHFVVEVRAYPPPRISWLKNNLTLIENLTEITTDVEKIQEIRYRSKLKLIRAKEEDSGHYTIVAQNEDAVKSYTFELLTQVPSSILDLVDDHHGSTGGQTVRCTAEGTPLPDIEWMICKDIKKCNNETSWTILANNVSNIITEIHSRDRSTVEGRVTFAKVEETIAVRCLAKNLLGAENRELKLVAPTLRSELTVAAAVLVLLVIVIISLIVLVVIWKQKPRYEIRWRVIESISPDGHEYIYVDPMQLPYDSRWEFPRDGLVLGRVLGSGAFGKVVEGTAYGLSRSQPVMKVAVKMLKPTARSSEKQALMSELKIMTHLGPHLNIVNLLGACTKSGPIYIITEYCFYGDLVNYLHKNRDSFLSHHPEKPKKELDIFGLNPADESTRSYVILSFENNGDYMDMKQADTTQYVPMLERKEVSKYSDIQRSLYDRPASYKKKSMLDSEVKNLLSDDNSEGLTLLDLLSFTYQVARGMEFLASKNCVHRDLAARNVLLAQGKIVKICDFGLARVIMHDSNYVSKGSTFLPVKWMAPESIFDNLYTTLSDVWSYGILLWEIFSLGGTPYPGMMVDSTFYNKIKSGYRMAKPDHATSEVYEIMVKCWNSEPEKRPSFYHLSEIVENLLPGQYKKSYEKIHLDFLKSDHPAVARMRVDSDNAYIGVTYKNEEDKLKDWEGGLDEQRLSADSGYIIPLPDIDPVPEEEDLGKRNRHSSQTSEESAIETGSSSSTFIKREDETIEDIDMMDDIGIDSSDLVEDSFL
Chain of MRCKβ(h) (Q9Y5S2 whole entry): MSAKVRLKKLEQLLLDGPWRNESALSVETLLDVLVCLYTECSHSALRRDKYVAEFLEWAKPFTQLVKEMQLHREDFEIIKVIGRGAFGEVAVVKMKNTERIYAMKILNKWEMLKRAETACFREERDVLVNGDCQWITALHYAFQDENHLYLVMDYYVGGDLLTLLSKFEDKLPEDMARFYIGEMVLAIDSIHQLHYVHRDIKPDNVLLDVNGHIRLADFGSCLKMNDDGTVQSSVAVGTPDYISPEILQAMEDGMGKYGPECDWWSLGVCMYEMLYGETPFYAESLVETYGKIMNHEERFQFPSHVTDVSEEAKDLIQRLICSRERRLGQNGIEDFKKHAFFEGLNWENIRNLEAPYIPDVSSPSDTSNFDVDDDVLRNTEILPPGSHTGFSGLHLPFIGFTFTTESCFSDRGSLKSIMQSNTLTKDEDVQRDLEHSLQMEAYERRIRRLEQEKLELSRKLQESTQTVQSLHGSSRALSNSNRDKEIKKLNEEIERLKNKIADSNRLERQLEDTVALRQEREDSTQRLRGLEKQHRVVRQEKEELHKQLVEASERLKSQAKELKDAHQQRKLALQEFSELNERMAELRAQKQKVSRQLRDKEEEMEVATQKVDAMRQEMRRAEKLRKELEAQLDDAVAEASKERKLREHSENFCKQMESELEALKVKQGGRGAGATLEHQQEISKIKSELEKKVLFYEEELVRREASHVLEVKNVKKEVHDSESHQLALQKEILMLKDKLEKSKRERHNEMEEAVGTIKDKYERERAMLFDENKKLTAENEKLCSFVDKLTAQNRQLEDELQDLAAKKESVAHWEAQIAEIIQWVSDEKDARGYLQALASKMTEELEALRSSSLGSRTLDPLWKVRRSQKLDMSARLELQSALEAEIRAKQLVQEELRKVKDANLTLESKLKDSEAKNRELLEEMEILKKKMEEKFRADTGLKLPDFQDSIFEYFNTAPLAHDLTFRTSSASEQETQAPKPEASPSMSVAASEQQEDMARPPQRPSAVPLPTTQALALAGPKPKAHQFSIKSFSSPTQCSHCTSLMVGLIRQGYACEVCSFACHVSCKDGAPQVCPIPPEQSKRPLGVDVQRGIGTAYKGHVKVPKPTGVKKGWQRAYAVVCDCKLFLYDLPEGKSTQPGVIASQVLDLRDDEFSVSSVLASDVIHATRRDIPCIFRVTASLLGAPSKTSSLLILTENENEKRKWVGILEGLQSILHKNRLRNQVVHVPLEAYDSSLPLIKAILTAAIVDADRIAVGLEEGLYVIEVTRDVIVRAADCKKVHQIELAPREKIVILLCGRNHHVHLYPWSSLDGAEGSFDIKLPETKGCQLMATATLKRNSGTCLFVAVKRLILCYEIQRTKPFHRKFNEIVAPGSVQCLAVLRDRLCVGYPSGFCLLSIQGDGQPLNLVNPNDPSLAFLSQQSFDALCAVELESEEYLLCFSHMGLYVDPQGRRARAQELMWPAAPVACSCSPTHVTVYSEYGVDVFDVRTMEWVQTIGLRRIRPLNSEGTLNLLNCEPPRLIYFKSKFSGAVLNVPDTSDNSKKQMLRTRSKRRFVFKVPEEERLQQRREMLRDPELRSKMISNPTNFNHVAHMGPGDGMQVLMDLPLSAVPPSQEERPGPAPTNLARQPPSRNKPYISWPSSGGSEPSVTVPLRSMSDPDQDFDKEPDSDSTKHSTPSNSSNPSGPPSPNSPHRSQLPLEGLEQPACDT

H-YARAAARQARAKALARQLGVAA-OH [MMI-0100]
pH of greatest stability [1]: 6 | activity at 100 µM (JNK1α1(h)): 91% | activity at 100 µM (MKK7β(h)): 137%

HRRIKAWLKKIKALARQLGVAA (Mammalian) [MMI-0500]
% activity (MARK1(h)): 110% | % activity (EphA1(h)): 40% | % activity (PDGFRα(D842V)(h)): 170% | % activity (IKKβ(h)): 71% | % activity (JNK2α2(h)): 81% | % activity (CDK1/cyclinB(h)): 57% | % activity (MRCKβ(h)): -10%

YARAAARQARAKALNRQLGVA (Mammalian) [MMI-0200]
% activity (IGF-1R(h)): 49% | % activity (EphA2(h)): 95%

Source: patent publication US10087225B2, “Formulation of MK2 inhibitor peptides” (MOERAE MATRIX, INC., priority 2015, dated 2018)
